Experimental data published in patent US20110243972A1 (Johns Hopkins, published 2011).

Tests used:
[1] = target: T1, HLA-A2 on T2 cells (HLA-A*0201) (human); test: T2 stabilisation assay, flow cytometry with W6/32
T1 construct: Class I molecule on the T2 cell surface, stabilised by peptide; Detected with mAb W6/32; also called T2-A2
Description: (§1) T2 cells were pulsed with 225 micrograms of peptide per ml overnight at room temperature before analysis by flow cytometry. T2 cells expressing HLA-A2 (A) or HLA-A24 (C) were stained with an unlabeled mouse anti-HLA class I molecule monoclonal antibody W6/32 and a goat-anti-mouse FITC-labeled IgG2a secondary antibody. T2 cells genetically modified to express A3 (B) were stained with an unlabeled mouse anti-human HLA-A3 specific monoclonal antibody GAPA3 and a FITC-labeled IgG2a secondary antibody.
(§2) Materials and Methods. Peptide/MHC binding Assays. T2 cells expressing the HLA molecule of interest were resuspended in AimV serum free media (Gibco, Grand Island, N.Y.) to a concentration of 1×10⁶ cells/ml and pulsed with 3 μg/ml beta-2 microglobulin (β₂-M) (Sigma, St. Louis, Mo.) plus peptide at 0-225 μg/ml of peptide at room temperature overnight. The cells were washed and resuspended at 2×10⁵ cells/ml. The level of stabilized MHC on the cell surface of the T2 and T2-A24 cells were analyzed by direct staining of cell samples with unlabeled anti-class I mAb W6/32 and a FITC-labeled goat-anti-mouse IgG2a secondary antibody.

[2] = target: T2, HLA-A3 on T2-A3 cells (HLA-A*0301) (human); test: T2-A3 stabilisation assay, flow cytometry with GAPA3
T2 construct: Detected with the anti-HLA-A3 mAb GAPA3
Description: as §1, §2

**Q.** What does the source list for EIDESLIFY [Mesothelin A1 (309-317) peptide (EIDESLIFY)]?
**A.** binding result [1]: no binding (tested: 225 micrograms of peptide per ml); binding result [2]: no binding (tested: 225 micrograms of peptide per ml)
